Consider three molecules from publication PMC2705282 (Journal of molecular biology, 2009).

B1: wild-type URO-D module of single-chain URO-D (enzyme, human)
chain: MEANGLGPQGFPELKNDTFLRAAWGEETDYTPVWCMRQAGRYLPEFRETRAAQDFFSTCRSPEACCELTLQPLRRFPLDAAIIFSDILVVPQALGMEVTMVPGKGPSFPEPLREEQDLERLRDPEVVASELGYVFQAITLTRQRLAGRVPLIGFAGAPWTLMTYMVEGGGSSTMAQAKRWLYQRPQASHQLLRILTDALVPYLVGQVVAGAQALQLFESHAGHLGPQLFNKFALPYIRDVAKQVKARLREAGLAPVPMIIFAKDGHFALEELAQAGYEVVGLDWTVAPKKARECVGKTVTLQGNLDPCALYASEEEIGQLVKQMLDDFGPHRYIANLGHGLYPDMDPEHVGAFVDAVHKHSRLLRQN
B3: F217Y URO-D module of single-chain URO-D (enzyme, human)
chain: MEANGLGPQGFPELKNDTFLRAAWGEETDYTPVWCMRQAGRYLPEFRETRAAQDFFSTCRSPEACCELTLQPLRRFPLDAAIIFSDILVVPQALGMEVTMVPGKGPSFPEPLREEQDLERLRDPEVVASELGYVFQAITLTRQRLAGRVPLIGFAGAPWTLMTYMVEGGGSSTMAQAKRWLYQRPQASHQLLRILTDALVPYLVGQVVAGAQALQLYESHAGHLGPQLFNKFALPYIRDVAKQVKARLREAGLAPVPMIIFAKDGHFALEELAQAGYEVVGLDWTVAPKKARECVGKTVTLQGNLDPCALYASEEEIGQLVKQMLDDFGPHRYIANLGHGLYPDMDPEHVGAFVDAVHKHSRLLRQN

The target of experiment [1] is B3. Briefly: crystal structure.
In experiment [2] the target is B1. Briefly: crystal structure.

On to B1, for which the binding result in experiment [1] is “binds”.

B2: Y164G URO-D module of single-chain URO-D (enzyme, human)
chain: MEANGLGPQGFPELKNDTFLRAAWGEETDYTPVWCMRQAGRYLPEFRETRAAQDFFSTCRSPEACCELTLQPLRRFPLDAAIIFSDILVVPQALGMEVTMVPGKGPSFPEPLREEQDLERLRDPEVVASELGYVFQAITLTRQRLAGRVPLIGFAGAPWTLMTGMVEGGGSSTMAQAKRWLYQRPQASHQLLRILTDALVPYLVGQVVAGAQALQLFESHAGHLGPQLFNKFALPYIRDVAKQVKARLREAGLAPVPMIIFAKDGHFALEELAQAGYEVVGLDWTVAPKKARECVGKTVTLQGNLDPCALYASEEEIGQLVKQMLDDFGPHRYIANLGHGLYPDMDPEHVGAFVDAVHKHSRLLRQN
Regarding B2, the binding result in experiment [2] was “binds”. For the molecule B3, the binding result in experiment [2] was “binds”.
